Among the data in patent US20210292414A1 (H LUNDBECK A S, published 2021) are binding result and EC50 values, retold here.

To fix the notation:
T1: Sortilin SORTECDBAP_hB01-05 (human/tetraodon chimera)
T1 construct: Shuffle construct: chimeric human/tetraodon Sortilin ECD with BAP tag
T1 chain: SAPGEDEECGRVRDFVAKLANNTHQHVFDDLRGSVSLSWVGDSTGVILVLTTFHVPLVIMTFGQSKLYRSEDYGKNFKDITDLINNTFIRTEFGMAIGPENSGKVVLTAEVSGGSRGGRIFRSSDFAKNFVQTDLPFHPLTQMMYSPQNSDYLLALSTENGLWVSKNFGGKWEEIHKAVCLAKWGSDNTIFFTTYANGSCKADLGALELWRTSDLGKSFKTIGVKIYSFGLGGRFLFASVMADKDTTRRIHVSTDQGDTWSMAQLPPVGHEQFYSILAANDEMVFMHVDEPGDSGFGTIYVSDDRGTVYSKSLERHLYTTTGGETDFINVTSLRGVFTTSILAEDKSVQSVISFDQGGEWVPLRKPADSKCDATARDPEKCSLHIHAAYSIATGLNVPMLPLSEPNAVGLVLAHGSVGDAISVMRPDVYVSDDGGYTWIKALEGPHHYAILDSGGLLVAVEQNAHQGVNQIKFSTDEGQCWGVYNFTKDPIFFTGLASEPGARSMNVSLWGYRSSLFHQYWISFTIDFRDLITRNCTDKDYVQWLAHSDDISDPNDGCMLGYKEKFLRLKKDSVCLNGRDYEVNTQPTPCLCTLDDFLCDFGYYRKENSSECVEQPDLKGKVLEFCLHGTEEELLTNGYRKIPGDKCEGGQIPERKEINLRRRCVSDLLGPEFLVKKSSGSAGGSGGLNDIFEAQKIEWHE

T2: Sortilin SORTECDBAP_tetra (tetraodon)
T2 construct: Fully tetraodon Sortilin ECD with BAP tag; also called tetraodon; tetraodon Sortilin
T2 chain: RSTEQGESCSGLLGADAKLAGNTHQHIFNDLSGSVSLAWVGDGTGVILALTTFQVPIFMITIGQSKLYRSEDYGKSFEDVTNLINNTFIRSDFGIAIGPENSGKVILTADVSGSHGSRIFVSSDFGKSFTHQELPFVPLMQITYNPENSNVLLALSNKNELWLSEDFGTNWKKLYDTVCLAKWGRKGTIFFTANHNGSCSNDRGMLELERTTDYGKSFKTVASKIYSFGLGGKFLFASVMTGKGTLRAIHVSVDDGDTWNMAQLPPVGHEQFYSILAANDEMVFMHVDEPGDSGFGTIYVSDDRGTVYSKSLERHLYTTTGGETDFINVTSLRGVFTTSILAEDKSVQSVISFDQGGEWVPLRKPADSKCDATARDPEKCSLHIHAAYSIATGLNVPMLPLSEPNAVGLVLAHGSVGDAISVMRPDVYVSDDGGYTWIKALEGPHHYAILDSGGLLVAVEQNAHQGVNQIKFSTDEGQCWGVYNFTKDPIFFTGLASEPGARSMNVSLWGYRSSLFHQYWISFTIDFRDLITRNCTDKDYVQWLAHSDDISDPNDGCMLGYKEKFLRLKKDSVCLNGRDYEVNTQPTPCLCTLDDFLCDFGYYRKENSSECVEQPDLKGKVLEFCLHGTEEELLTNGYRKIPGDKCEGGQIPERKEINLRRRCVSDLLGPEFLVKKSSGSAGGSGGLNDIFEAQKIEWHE

T3: Sortilin hSORTECDBAP (human, UniProt Q99523 78-755)
T3 sequence: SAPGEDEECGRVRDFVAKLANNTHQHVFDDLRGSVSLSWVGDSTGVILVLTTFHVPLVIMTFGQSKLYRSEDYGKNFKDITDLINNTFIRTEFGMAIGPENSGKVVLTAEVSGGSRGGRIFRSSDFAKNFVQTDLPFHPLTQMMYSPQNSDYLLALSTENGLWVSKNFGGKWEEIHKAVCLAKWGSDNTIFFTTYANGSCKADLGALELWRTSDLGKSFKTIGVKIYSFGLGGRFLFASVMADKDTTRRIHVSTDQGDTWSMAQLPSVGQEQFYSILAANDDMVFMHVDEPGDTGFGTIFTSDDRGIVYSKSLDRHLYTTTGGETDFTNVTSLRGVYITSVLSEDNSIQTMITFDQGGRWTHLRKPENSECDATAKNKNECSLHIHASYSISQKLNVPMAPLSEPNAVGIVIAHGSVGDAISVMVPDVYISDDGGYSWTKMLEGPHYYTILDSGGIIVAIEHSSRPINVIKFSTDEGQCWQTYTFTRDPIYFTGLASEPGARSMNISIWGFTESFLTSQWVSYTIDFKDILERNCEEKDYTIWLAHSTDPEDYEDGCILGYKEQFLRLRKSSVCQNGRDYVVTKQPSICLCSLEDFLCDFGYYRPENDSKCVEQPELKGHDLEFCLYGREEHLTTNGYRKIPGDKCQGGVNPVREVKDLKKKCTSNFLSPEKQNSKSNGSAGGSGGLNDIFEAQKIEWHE

T4: Sortilin SORTECDBAP_hB06-10 (human/tetraodon chimera)
T4 construct: Shuffle construct: chimeric human/tetraodon Sortilin ECD with BAP tag
T4 chain: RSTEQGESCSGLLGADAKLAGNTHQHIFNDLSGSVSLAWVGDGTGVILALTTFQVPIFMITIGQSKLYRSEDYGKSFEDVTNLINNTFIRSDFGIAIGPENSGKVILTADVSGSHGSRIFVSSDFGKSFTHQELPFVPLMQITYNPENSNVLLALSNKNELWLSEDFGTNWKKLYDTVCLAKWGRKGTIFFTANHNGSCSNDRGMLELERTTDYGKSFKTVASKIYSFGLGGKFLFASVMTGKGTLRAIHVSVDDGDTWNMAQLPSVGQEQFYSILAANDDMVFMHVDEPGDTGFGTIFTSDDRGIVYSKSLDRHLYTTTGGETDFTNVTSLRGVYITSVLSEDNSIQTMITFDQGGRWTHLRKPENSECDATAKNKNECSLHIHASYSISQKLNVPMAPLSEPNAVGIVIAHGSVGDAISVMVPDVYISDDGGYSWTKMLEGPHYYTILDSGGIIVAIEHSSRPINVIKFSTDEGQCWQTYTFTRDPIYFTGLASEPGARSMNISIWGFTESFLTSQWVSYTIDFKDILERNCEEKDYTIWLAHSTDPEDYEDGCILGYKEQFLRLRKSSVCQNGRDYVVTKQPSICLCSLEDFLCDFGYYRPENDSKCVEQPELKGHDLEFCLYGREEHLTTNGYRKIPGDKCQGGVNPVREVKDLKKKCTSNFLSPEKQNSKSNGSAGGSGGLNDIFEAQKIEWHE

B1: Antibody 6003-900 (antibody, human IgG1, V domains shown)
VH: EVQLVESGGGLVKPGGSLRLSCAASGFTFSSYSMNWVRQAPGKGLEWVSSISSSSSYIYYADSVKGRFTISRDNAKNSLYLQMNSLRAEDTAVYYCARRGSGSYDAFDIWGQGTMVTVSS
VL: EIVLTQSPDFQSVTPKEKVTITCRASQSIGYSLHWYQQKPDQSPKLLIKYASQSFSGVPSRFSGSGSGTDFTLTINSLEAEDAAAYYCHQSSSLPLTFGGGTKVEIK
notes: also called antibody 900; Sortilin human antibody 900
B2: Antibody 6003-799 (antibody, human IgG1, V domains shown)
VH: QVQLVESGGGVVQPGRSLRLSCAASGFTFSSYGMHWVRQAPGKGLEWVTVISYDGSNKYYADSVKGRFTISRDNSKNTLYLQMNSLRAEDTAVYYCAKLTGDAFDIWGQGTMVTVSS
VL: EIVLTQSPATLSLSPGERATLSCRASQSVSSYLVWYQQKPGQAPRLLIYHASNRATGIPARFSGSGSGTDFTLTISSLEPEDFAVYYCQQRSNWPRITFGQGTRLEIK
B3: Antibody 6003-886 (antibody, human IgG1, V domains shown)
VH: QVQLVQSGAEVKKPGASVKVSCKASGYTFTKYGISWVRQAPGQGLEWMGWISAYNGNTNYAQKLQDRVTMTTDTFTSTAYMELRSLRSDDTAVYFCARDGPLTGDFTFYGMDVWGQGTTVTVSS
VL: B2 VL with V34A, H50D, R96P, I97F, Q101P, R104K, L105V, E106D
B4: Antibody 6003-822 (antibody, human IgG1, V domains shown)
VH: EVQLLESGGGLVQPGESLTLSCAASGFTLSSYAMSWVRQAPGKGLEWVSSISGRLGTTYYAASVKGRFTISRDNSKNTLYLQMNSLRAEDTAIYSCAKAPSDAFDIWGQGTMVTVSS
VL: B2 VL with V34A, H50D, R96I, I97F, Q101P, R104K, L105V, E106D
B5: IgG1-6003-910 (antibody, V domains shown)
VH: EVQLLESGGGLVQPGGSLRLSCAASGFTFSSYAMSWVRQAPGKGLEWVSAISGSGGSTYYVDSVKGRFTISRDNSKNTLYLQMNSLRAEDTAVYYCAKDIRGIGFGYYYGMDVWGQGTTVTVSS
VL: EIVLTQSPATLSLSPGERATLSCRASQSVSSYLVWYQQKPGQAPRLLIYDASNRATGIPARFSGSGSGTDFTLTISSLEPEDFAVYYCQQRSNWPPTFGQGTRLEIK
notes: also called Antibody 6003-910
B6: IgG1-6003-972 (antibody, V domains shown)
VH: QVQLVESGGGVVQPGRSLRLSCAASGFTFSDYAMHWVRRAPGKGLEWVVVISYDGSNKYYADSVKGRFTISRDNSKNTLYLQMNSLRAEDTAVYYCARDPSGGWYFDLWGRGTLVTVSS
VL: B5 VL with V34A, V85L, N93H, P96R, R103K, L104V
notes: also called Antibody 6003-972

Substitutions are numbered along the chain they refer to.

The target of one assay is T1, Sortilin SORTECDBAP_hB01-05. Nature of the assay: BLI (Octet384RED).
With B1, the binding result is given as “no binding”.
Same read-out and setting: the result for B2 reads “no binding”.
Still for that read-out and setting: the result for B3 reads “no binding”; that for B4, “no binding”.
On to B5, for which the binding result is “no binding”.
Take B6: the binding result was “no binding”.

The target of another assay is T2, Sortilin SORTECDBAP_tetra. Briefly: BLI (Octet384RED).
As to B1, the binding result is reported as “no binding”.
Still for that read-out and setting: to B2 belongs “no binding”; to B3, “no binding”.
In the case of B4, the binding result is “no binding”.
In the case of B5, the binding result was “no binding”.
Still for that read-out and setting: the result for B6 reads “no binding”.

The target of a further assay is T3, Sortilin hSORTECDBAP
Nature of the assay: BLI (Octet384RED).
Consider B1, for which the EC50 (as a rule, the midpoint of the concentration-response curve) is 1.06 ng/mL.
Same read-out and setting: the result for B2 reads 3.49 ng/mL; that for B3, 3.4 ng/mL.
On the same count and under the same terms, the result for B4 reads 1.97 ng/mL; that for B5, 1.34 ng/mL; that for B6, 1.35 ng/mL.

The target in a further assay is T4, Sortilin SORTECDBAP_hB06-10. Briefly: BLI (Octet384RED).
B1: the EC50 stood at 0.91 ng/mL.
Still for that read-out and setting: the result for B2 reads 2.63 ng/mL.
On the same count and under the same terms, the result for B3 reads 2.44 ng/mL.
As for B4, the EC50 is 1.49 ng/mL.
Still for that read-out and setting: the result for B5 reads 1.16 ng/mL; that for B6, 1.12 ng/mL.
